Measured values reported in paper PMC10868440, “Structural characterization of the Sel1‐like repeat protein LceB from Legionella pneumophila” (Protein Science : A Publication of the Protein Society, 2024).
Where “and” joins values, the source holds several entries; their conditions need not be identical. Equal values may be shown once.

B1: 6His-LceB (22-366) (domain or fragment)
chain: VGFAAFENGDYTTAYPHLMQAAKEGNEEAMYLLGRMYQYGYGVTTNYEEARNWYQKAADKNNALAQLSLGFMYDTGKGVSQDFTEAFKWYMKAAEQGNPIAQRNIGLMYATGDGVAASDDKAFNWFKKAAEQGYSKAQVNLGYQYMMGKGTPKDVKKAFEWYQKAAEQGDEKGEYSLGLLYTGQEGGIGADDKAAFYWFSQAANHGHVNAQTYLAYYYLKGYGVDADPVKAAYWYQSAAEKGQPEAQAQLGQLLLTGTGVDKDYQQAAYWFGKSAHQGNPIGQAKLGYMYLAGLGVNKSLVKAYAWLKIAAENKNEEAAKQLKSLEAKLTEPEKLEAEKMIKDLG
notes: also called Lpg1356; truncated LceB crystallization construct; not shown: His6, N-terminal, kept
B2: LceB no HT (22-366) (domain or fragment)
chain: B1 chain
notes: also called LceB no His-tag; digested LceB

How the values were obtained:
[1] = biological target: full-length 6His-LceB (Legionella pneumophila Philadelphia-1) (UniProt Q5ZVT4); test: mass photometry
mass photometry = biological target: the molecule itself; test: mass photometry

| Molecule | stoichiometry N [1] | stoichiometry N (mass photometry) |
| --- | --- | --- |
| full-length 6His-LceB (from UniProt Q5ZVT4 1-376) (natural protein) | 3 and 5 | – |
| B1 | – | 2 |
| B2 | – | 2 |
